This note sets out measurements from publication PMC7373317, “Structural basis of human full-length kindlin-3 homotrimer in an auto-inhibited state” (PLoS Biology, 2020).

Assay [1] addresses human full-length kindlin-2, from Sf9 insect cells (monomer) (human) (UniProt Q96AC1). The assay can be described thus: ITC; MicroCal PEAQ-ITC, 25 °C, 50 mM HEPES pH 7.5, 150 mM NaCl; 500 μM ITGB1 tail injected into 50 μM monomer or trimer kindlin.
Assay [2] deals with human full-length kindlin-3, wild type, from Sf9 insect cells (monomer) (human, UniProt Q86UX7 1-667). Described as above. To be noted: both partners purified.
Chain of human full-length kindlin-3, wild type, from Sf9 insect cells (monomer) (Q86UX7 whole entry): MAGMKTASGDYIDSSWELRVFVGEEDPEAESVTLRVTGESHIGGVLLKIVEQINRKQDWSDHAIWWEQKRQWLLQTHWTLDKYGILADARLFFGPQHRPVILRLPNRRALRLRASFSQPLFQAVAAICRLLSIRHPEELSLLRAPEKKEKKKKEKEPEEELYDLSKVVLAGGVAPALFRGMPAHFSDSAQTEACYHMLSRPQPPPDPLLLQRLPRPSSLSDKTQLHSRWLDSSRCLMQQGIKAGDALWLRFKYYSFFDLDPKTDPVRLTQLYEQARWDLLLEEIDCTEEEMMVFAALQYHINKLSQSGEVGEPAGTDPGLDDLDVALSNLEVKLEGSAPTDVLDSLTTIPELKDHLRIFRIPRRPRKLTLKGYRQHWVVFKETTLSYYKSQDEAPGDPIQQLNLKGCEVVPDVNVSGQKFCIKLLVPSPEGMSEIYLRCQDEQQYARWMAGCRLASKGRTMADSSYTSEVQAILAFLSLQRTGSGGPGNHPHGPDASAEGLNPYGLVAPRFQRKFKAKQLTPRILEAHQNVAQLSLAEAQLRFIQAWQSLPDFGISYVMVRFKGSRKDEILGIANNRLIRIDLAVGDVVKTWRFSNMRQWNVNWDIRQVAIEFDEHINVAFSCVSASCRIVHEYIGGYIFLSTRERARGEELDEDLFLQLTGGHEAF
Assay [3] has as its target T1, human full-length kindlin-2, from Sf9 insect cells (monomer) (human), Q96AC1.
T1 chain: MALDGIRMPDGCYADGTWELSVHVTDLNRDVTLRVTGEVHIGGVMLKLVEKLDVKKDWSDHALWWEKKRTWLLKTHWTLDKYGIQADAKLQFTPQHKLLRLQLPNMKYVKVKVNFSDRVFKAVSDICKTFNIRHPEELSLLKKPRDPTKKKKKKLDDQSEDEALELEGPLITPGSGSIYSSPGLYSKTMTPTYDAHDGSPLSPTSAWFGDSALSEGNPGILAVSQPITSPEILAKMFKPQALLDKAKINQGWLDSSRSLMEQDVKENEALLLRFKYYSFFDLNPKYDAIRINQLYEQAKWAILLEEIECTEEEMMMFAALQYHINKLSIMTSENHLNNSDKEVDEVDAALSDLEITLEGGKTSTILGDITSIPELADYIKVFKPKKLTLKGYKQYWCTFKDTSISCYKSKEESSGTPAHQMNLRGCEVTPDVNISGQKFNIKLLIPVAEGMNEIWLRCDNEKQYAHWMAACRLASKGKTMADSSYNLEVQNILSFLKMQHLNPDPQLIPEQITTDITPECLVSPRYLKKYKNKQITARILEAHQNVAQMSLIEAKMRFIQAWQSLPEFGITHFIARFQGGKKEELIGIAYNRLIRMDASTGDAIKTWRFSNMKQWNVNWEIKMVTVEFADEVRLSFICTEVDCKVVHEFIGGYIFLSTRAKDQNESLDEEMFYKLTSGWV
The assay can be described thus: SEC-MALS; Superdex 200 increase 5/150 GL, 20 mM HEPES pH 7.5, 500 mM NaCl, at least 2 mg/mL. To be noted: remark: other sources report otherwise.

Assay [4] concerns the target T1, human full-length kindlin-2, from Sf9 …. The assay can be described thus: SEC; analytical gel filtration, Superdex 200 Increase 10/300 GL, 20 mM Tris-HCl pH 7.5, 150 mM NaCl, calibrated with HMW kit. To be noted: remark: other sources report otherwise. For orientation: Size exclusion chromatography separates by hydrodynamic size, large species first.

A word on the Kd: it is the constant that tells how readily two partners part at equilibrium. Low values mean tighter binding, high ones weaker binding. The stoichiometry N is the number of molecules, sites or subunits per partner or assembly.

B1: human integrin β1 cytoplasmic tail (ITGB1 residues 773–798) (domain or fragment, UniProt P05556-1 773-798, looked up)
chain: AKWDTGENPIYKSAVTTVVNPKYEGK
notes: integrin beta-1, human, cytoplasmic tail residues 773-798; pNH-TrxT, N-terminal cleavable 6xHis thioredoxin tag; no cleavage step is described and the ITC control was the His-Trx tag alone, so the tag was probably kept (surmise); also called ITGB1 tail; integrin β1 tail
Consider B1, for which the figures for the Kd in assay [1] and in assay [2] were 13.4 µM and about 200 µM, respectively.

B2: human full-length kindlin-2, from Sf9 insect cells (monomer), Q96AC1 1-680 (natural protein)
chain: MALDGIRMPDGCYADGTWELSVHVTDLNRDVTLRVTGEVHIGGVMLKLVEKLDVKKDWSDHALWWEKKRTWLLKTHWTLDKYGIQADAKLQFTPQHKLLRLQLPNMKYVKVKVNFSDRVFKAVSDICKTFNIRHPEELSLLKKPRDPTKKKKKKLDDQSEDEALELEGPLITPGSGSIYSSPGLYSKTMTPTYDAHDGSPLSPTSAWFGDSALSEGNPGILAVSQPITSPEILAKMFKPQALLDKAKINQGWLDSSRSLMEQDVKENEALLLRFKYYSFFDLNPKYDAIRINQLYEQAKWAILLEEIECTEEEMMMFAALQYHINKLSIMTSENHLNNSDKEVDEVDAALSDLEITLEGGKTSTILGDITSIPELADYIKVFKPKKLTLKGYKQYWCTFKDTSISCYKSKEESSGTPAHQMNLRGCEVTPDVNISGQKFNIKLLIPVAEGMNEIWLRCDNEKQYAHWMAACRLASKGKTMADSSYNLEVQNILSFLKMQHLNPDPQLIPEQITTDITPECLVSPRYLKKYKNKQITARILEAHQNVAQMSLIEAKMRFIQAWQSLPEFGITHFIARFQGGKKEELIGIAYNRLIRMDASTGDAIKTWRFSNMKQWNVNWEIKMVTVEFADEVRLSFICTEVDCKVVHEFIGGYIFLSTRAKDQNESLDEEMFYKLTSGWV
As to B2, the stoichiometry N in assay [3] and in assay [4] was 3 each time.
